The DeepSol protein solubility set

Experiment: soluble on expression in E. coli; label from the status in PepcDB or PDB records

Sequence | soluble on expression in E. coli
MAHHHHHHMTVGAAALCEYYGYLPRLVRHTGLLPSTRTSVTSSMAATVLQSSLYEADPSPPVRSGEFELPSTYSLHKPLVYDIAALPPKPVSSLRLVIISDTHERHREMSVPNGDVLVHCGDIQEGLNFVRDVKAMLIDFSAWFTDSALHPHPVKLIIAGNHDKAIAAMSTEDVRRLFAPAVYLCEDSVVVEPAGVRFYGSPRSISNSRWSPNTAFQGKKAWKRFVFASARQDDEAGAVSTASRCSSEQPLRSRLEGATPGGPVDVLVVHQSPDIPRAHHSVSEQPICAYAQQVAPRRVLLCGHLHGAHGMHRLPVPEHVRKSFRIATRGGGGQPEGVVRMDEIPHLPCINAAMMTGRFGQNVLLPPSVVDLEL | not soluble
MAHHHHHHMVAPSGRTGRRTTRRRTLHTGAGTTVTQRSARLPSRLRRVSTLKTSRAPSCLSTSARLRLFRRRRTCWRCWSERASPYQSSATTPSSPPETAVCAWCRTALRTSSSRAPPWRYLACPSSPTAACAMPARAMWSLSSTTRTTARFASRPPTAICRTATTAPTSRATARTRKPSRTSTLTPRHASCTAASTARAASASTSTRRTSTSARLAAAGARFPPFMNWRRRTTICPFLSYAPSGSCTWAMQTRTTTCASSRLRGQRR | soluble
MAHHHHHHMVENEVYNRDMRIVRSRERLDGRPTLRSFFNKDGLLLKTYGWIVRNAVGLIVLIHGLNSHTRFSFLRHNVHVFNNRAILMDADNYYIYKNSWIEHFNKNGYSVFGIDLQSHGESEGWENLSLNVKEFDDLVYDVLEYIQKVQDDNARYMNYSSSSYSSSSSRSNSSSNSSSNSGSNSNSNSNSNSRGGESPRNDNSANRMIAPLPVYLIGQSMGGNVALRALQIVGKYRGLNRRLNIRGCVSLSGMIAVEALGLPSSYIYKSFFMPLSRFLSDFLPTLRLLCEMPYKRFQYIRDIGRFDTMRYRRGITCRFAYELLKAMDNLDHDMRFMPRDIPVLFIHSSKDKLCYPGGVVSFYNRLNIRNKELHMLNYMEHMLTMEPGNERVLSKIMNWLYNMSRPQRITA | not soluble
MAHHHHHHMVKGDCIRAAHLLIKFDGSRNCVSHRTGKSTADLTYDAALAELKQWAKRIADGEITFEDAARQRSDCGSYNSGGDLGFFGPGVMMKPFEDAARSLNVGEVSGVVRTESGLHIIKRLA | soluble
MAHHHHHHMVLIKAKNNEGKTVGEGKFSPFCFVLYGDIQYGMIRANHGWYEERKLLKEAITKTNKIKPSFVVAMGDLANKFPIDELQNEQYKDLKTDFEQLDKSIDLYVFCGNHDVGNEPTHETISNFEHFWGDSYYSYIYNNCGFIILNSAVFFNDTQVQDLKEKQFLWLDETLKKMVSKNVKHKFLFLHHALMYDHIEEDENIGLIYGDKFRNYSEKNKFHIKKETRMVIYDMLKKYKVSHVFCAHLHANREKNIDANIKQITISAVGMQAASDQSGLMIVQVAEEGVDYKYYPFEFVPSFVKV | not soluble
MAHHHHHHMVMSQRIAYVTGGMGGIGTSICQRLHKDGFRVVAGCGPNSPRRVKWLEDQKALGFDFYASEGNVGDWDSTKQAFDKVKAEVGEIDVLVNNAGITRDVVFRKMTREDWQAVIDTNLTSLFNVTKQVIDGMVERGWGRIINISSVNGQKGQFGQTNYSTAKAGIHGFTMSLAQEVATKGVTVNTVSPGYIGTDMVKAIRPDVLEKIVATIPVRRLGSPDEIGSIVAWLASEESGFSTGADFSLNGGLHMG | soluble
MAHHHHHHMVSANKSTMPLSQGCAAAAGIPLEYFETRDHINHLISLGMPRVTPHTVPPKERVATLPVPPQQDHTELMLTISSGGSPQKSYFSTTESHLLTCGTLTPKTARKRPEIDSFDMEGAFAALVKRLESRVDEEDNKDMAS | not soluble
MAHHHHHHMWHTTVMVPTQHWGAVGYFPAIVTRPSQLNFSGSYDPVAWSGPPSYPGQFAAGNRRQLGQQEQYRQPYSNYHNRPQPHRQMHAQPPYMAHRMTVNAVTYGFGDPTLGVYRTSADGWKYRGAYGGGRRPSPPFQAMVTRPLVSSNGRRRRGTHARANMAGGWGDLDTYDLYAFEAGENLDVDNMSYEELLELTERLGMVERGVQPARLNELRVVITPTHVKQQLESDRMVAGRNGLVKGGANIDQEEKEANEKMCEEDPIKCCICLDGVLVGQTATRMPCCRNFLHASCAAPWFV | not soluble
MAHHHHHHSLSQVILDLQLACENHAGLPDEAQFQRWLDGVIPQFQEEAEVTIRLVDEAESHDLNLTYRGKDKPTNVLSFPFEAPPGIEMPLLGDLIICRQVVEQEAQEQSKPLEAHWAHMVVHGSLHLLGYDHIDDDEAEEMESLETEIMLAMGYEDPYIAEKIAE | soluble
MAHHHHHHSLTTVGLELINVSSSWDEGIVELFEKIKRENKANGQLTGDDGLFFTNLYVTPVLKNINLRLEEGMMLAVAGSTGSGKSSLLMMILGELVPSEGKIRHSGRISYSPQTSWIMPGTIRDNILFGLTYDEFRYTSIIRACQLEEDLDLLPEKDKTAIAEGGVTLSGGQRARICLARAVYKDADLYLLDAPFTHLDIATEKEIFDKCVCKLIASKTRVVVTSKLEHLKRADRILLLHNGDCYFYGTFSELQAQRPDFSSLLLGLGSYDNISAERRSSILTETLRRVSVDETAGFRGEG | soluble
MAHHHHHHVGTGSNDDDDKSPDPTQDVREPPALKYGIVLDAGSSHTSMFVYKWPADKENDTGIVGQHSSCDVQGGGISSYANDPSKAGQSLVRCLEQALRDVPRDRHASTPLYLGATAGMRLLNLTSPEATARVLEAVTQTLTQYPFDFRGARILSGQDEGVFGWVTANYLLENFIKYGWVGRWIRPRKGTLGAMDLGGASTQITFETTSPSEDPGNEVHLRLYGQHYRVYTHSFLCYGRDQILLRLLASALQIHRFHPCWPKGYSTQVLLQEVYQSPCTMGQRPRAFNGSAIVSLSGTSNATLCRDLVSRLFNISSCPFSQCSFNGVFQPPVAGNFIAFSAFYYTVDFLTTVMGLPVGTLKQLEEATEITCNQTWTELQARVPGQKTRLADYCAVAMFIHQLLSRGYHFDERSFREVVFQKKAADTAVGWALGYMLNLTNLIPADLPGLRKGTHF | soluble
MAHILLIPANSPFVVTGALSAKVSTVEEFAQKHRAFAIFNAGFFDPANQKSTSYVVVTGQMVADPKDNERLVNNPQLKPYLNLIFNRSEFRRYLCGQTTRYDITLHNESPPANCRLVDAIGAGPRLLPKLTSVPEGFVDNAKGRDALLSKQLNARTAVGITSEGSIILVMVAQKPSKPKNSGISLVQLADLMKKLGASAAMNLDGGSSSSLYYNGKAFYGKFDLQGNPIKRKVKSVLLVQENVRNLEHHHHHH | not soluble
MAHKGTESKEQIWPYKITIGICAMNRKATSKPMRAIMKKIIDFYGQWVDSFIFPEQVIINEPVENWPLCHCLVSFHSTEFPLEKAIAYVKLRNPYVINNLDRQYDLLDRRTVFKILSDNGIEHPRHGYVIRGRPNEPDTELVEHPDHIEVNGEVFNKPFVEKPISSEDHNVYIYYPSSVGGGSQRLFRKINNRSSWYSPKSEVRKEGSYIYEEFIPADGTDVKVYAVGPFYAHAEARKAPGLDGKVERDSDGKEVRYPVILSNKEKQIAKKIVLAFGQTVCGFDLLRANGKSYVCDVNGFSFVKTSTKYYEDTAKILGNQIVRHYAKSKNWRVPSDMPQPPILDLGLGDDPPMITTPSGKLAELRCVVAVIRHGDRTPKQKMKLIVTDQRFFALFEKYDGYKKHEIKMKKPNQLMEVLELARALVIEKQRDRHQILEKLREGTGEEEIHKSEHDLEVCEEEMKKWEQMRTVLEMYGHFSGINRKVQMKYLKERETKTSDEELRREGPALLLILKWGGELTTAGNMQAEALGRLFRTLYPGIRRTDGKSSPEDTQGLGFLRLHSTYRHDLKIYASDEGRVQTTAAAFAKGLLALEGELTPILMQMVKSANTDGLLDDDCQARLYQTELKRYLHKALQADRDFTPQDYLELNPNGLRAITAAMEFIKNPRKMCHEIAGYVEKMCGVIVEYSQTRPTGSTLYLQESMDLAQRRWNKELREFRRKNKHGEVEFDISKIPDIYDNIKYDMEHNPDLCINNEVEFERMYVCVKNMADIVVPQEYGIKTENKMVIAQRVCTPLLRKIRNDLHRCLENKESEETQTRLDPRASQGIATPFRHVRTRLYFTSESHIHTLMNLIRYGNLCSVDDKKWQRAMNFLSGVTEFNYMTQVVLMVYEDSRKENDEADTGPRFHIEILFSPGLYPCFLTEKERIYETRFNLSTNPKPATSSRSSGRESRDTNDSASSSTEGRRPSIEKVVTVVTPTQLSTPSVTNDDLSISSNAESTAAESTGLVNTTTKTHNDSEDDLNDVESVNLVALDELNNTTKASQRGSFHVTEPIQIDEKTRRYFPYRFKHHTAQLLTGMSGGGVHMQNRLISTDVLTGKFGDHDNKKNSRKDFGAGTAVLSTAVIARSSSAPRLMTYESEDFSVGEIKRFWPPLRSLETLHDSINLSQFDGFLERLIKGALTPLPSPPKTPLPSALSCDAINKTPTQDEVEKVIGKLAPTSSTD | not soluble
MAHQEHFQFGYRRHRDQDRQDPARHPVVVVGAGPVGLSLAIDLAQRGQNVVLLDDADRIGEGSRAICFSKRALEVWDRLGVGAQMVEKGVVWQVGKIFRRDEMVYRFDLLPETGHKMPAFINLQQYYAEAFLVGRVQQLPQIDLRWRNKVTALAQHNDHAELTIETPDGPYRLAADYVIACDGARSSLRGMVGAEFAGEVFEDQFLIADVKMTAAFPTERWFWFDPPFHSGQSALLHRQPDDVWRIDLQIGPEADAAVERQPERVRPRIERMLGHGDFSFEWISIYKFQCRRMQRFLHERVIFAGDSAHQVSPFGARGANSGLEDGENLAWKLDLVLRGQAPASLLDSYDIERSQAADDNIRHSTRSTDFIAPHSKQERRLRDAVLALAHDVEFAKRMVNAGRLSTPSVYQSSLSTDDVDVWSSGPVPGAAMRDAPLRAADGTLVYLTEAFMQAGGGFVLLERANGAAAPVPQGVRSLRIGGDAPLRDDEGVFAARYDATPGAAYLLRPDGYVAARFRHPTQAAVDAALARACGRLEHHHHHH | not soluble
MAHRKTTTKNGNGGTLGFEAELFKAADKLRGNMEPSDYKHVALGLIFLKYISDAFEAKHSALLAEDAQAAEDKDEYLAHNVFWVPKQARWSHLKANAKQSTIGTLIDEAMRDIEKDNPSLKHVLPKDYARPALNKVMLGELIDLISGIALNEEGARSKDILGRVYEYFLGQFAGAEGKRGGEFYTPRSVVRVLVQMLEPYSGRVYDPCCGSGGMFVQSEKFVLEHGGRIGDIAIYGQESNYTTWRLAKMNLAVRGIDSDIRWNNEGSFHNDALRDLKADYILANPPFNISDWGGDRLREDVRWKFGVPPAGNANYAWLQHIYHHLAPNGTAGVVLANGSMSSNHSGEGEIRTHMIEADIVDCMIAMPGQLFYSTQIPACLWFLARNKNPGKGLRDRRGQVLLMDARALGVLVDRTRRELTDEHIQQIADTYHAWRGEQGAAAYADVAGFCKSATLEDIRKQGYVLTPGRYVGAVEREDDGEPFPQKMQRLSAQWRAQRAAAAKLDAAIAANLKELGYGG | soluble
MAIDFNAMPPSTWAENLARNQLSKLQTQLDTQTKSAKARTDALSQLQKALQDYKSSLATLTGKKSLVAMNAAATPDGMASVTAKGNAAAGNYSVFVEQLASSQQ | not soluble
MAIDVLDVISLSLFKQQIEFEEDDRDELITLYAQAAFDYCMRWCDEPAWKVAADIPAAVKGAVLLVFADMFEHRTAQSEVQLYENAAAERMMFIHRNWRGKAESEEGS | soluble
